T1: formyl peptide receptor 2 (FPR2) (UniProt P25090 1-351, limits assumed)
T1 sequence (looked up): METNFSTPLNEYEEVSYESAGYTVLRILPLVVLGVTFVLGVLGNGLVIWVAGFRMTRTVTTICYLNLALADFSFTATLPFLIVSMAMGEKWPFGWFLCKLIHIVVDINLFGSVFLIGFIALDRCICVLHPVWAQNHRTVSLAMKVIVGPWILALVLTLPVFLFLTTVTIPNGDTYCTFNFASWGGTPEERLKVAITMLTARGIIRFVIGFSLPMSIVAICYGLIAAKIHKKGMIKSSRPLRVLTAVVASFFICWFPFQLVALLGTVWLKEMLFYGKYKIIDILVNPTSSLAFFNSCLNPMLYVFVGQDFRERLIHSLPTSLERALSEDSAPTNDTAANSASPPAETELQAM

T2: FPR1 (UniProt P21462 1-350, limits assumed)
T2 sequence (looked up): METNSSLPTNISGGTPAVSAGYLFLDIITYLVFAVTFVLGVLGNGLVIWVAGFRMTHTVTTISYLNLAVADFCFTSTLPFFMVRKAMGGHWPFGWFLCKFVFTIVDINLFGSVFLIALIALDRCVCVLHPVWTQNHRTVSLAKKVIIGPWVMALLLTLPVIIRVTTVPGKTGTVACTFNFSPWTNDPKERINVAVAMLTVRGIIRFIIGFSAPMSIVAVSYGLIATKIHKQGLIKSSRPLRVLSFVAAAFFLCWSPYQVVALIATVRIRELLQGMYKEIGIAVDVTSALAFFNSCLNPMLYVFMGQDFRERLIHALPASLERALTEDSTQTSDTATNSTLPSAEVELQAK

B1: peptide of SEQ ID NO 13 (peptide)
peptide: MRYKVM
HELM: PEPTIDE1{M.R.Y.K.V.[dM].[am]}$$$$V2.0; N-terminus assumed
SMILES: CSCC[C@H](N)C(=O)N[C@@H](CCCNC(=N)N)C(=O)N[C@@H](Cc1ccc(O)cc1)C(=O)N[C@@H](CCCCN)C(=O)N[C@H](C(=O)N[C@H](CCSC)C(N)=O)C(C)C
B2: peptide of SEQ ID NO 123 (peptide)
peptide: RWRYYYM
HELM: PEPTIDE1{R.W.R.Y.Y.Y.[dM].[am]}$$$$V2.0; N-terminus assumed
SMILES: CSCC[C@@H](NC(=O)[C@H](Cc1ccc(O)cc1)NC(=O)[C@H](Cc1ccc(O)cc1)NC(=O)[C@H](Cc1ccc(O)cc1)NC(=O)[C@H](CCCNC(=N)N)NC(=O)[C@H](Cc1c[nH]c2ccccc12)NC(=O)[C@@H](N)CCCNC(=N)N)C(N)=O
B3: peptide of SEQ ID NO 139 (peptide)
peptide: PKYKVM
HELM: PEPTIDE1{[ac].P.K.Y.K.V.[dM].[am]}$$$$V2.0
SMILES: CSCC[C@@H](NC(=O)[C@@H](NC(=O)[C@H](CCCCN)NC(=O)[C@H](Cc1ccc(O)cc1)NC(=O)[C@H](CCCCN)NC(=O)[C@@H]1CCCN1C(C)=O)C(C)C)C(N)=O
B4: peptide of SEQ ID NO 138 (peptide)
peptide: PKYKVM
HELM: PEPTIDE1{P.K.Y.K.V.[dM].[am]}$$$$V2.0; N-terminus assumed
SMILES: CSCC[C@@H](NC(=O)[C@@H](NC(=O)[C@H](CCCCN)NC(=O)[C@H](Cc1ccc(O)cc1)NC(=O)[C@H](CCCCN)NC(=O)[C@@H]1CCCN1)C(C)C)C(N)=O
B5: peptide of SEQ ID NO 133 (peptide)
peptide: IKFKPM
HELM: PEPTIDE1{I.K.F.K.P.[dM].[am]}$$$$V2.0; N-terminus assumed
SMILES: CC[C@H](C)[C@H](N)C(=O)N[C@@H](CCCCN)C(=O)N[C@@H](Cc1ccccc1)C(=O)N[C@@H](CCCCN)C(=O)N1CCC[C@H]1C(=O)N[C@H](CCSC)C(N)=O
B6: peptide of SEQ ID NO 127 (peptide)
peptide: HMKYYYM
HELM: PEPTIDE1{[CCCC(=O)[*:2]].H.M.K.Y.Y.Y.[dM].[am]}$$$$V2.0
SMILES: CCCC(=O)N[C@@H](Cc1c[nH]cn1)C(=O)N[C@@H](CCSC)C(=O)N[C@@H](CCCCN)C(=O)N[C@@H](Cc1ccc(O)cc1)C(=O)N[C@@H](Cc1ccc(O)cc1)C(=O)N[C@@H](Cc1ccc(O)cc1)C(=O)N[C@H](CCSC)C(N)=O
B7: peptide of SEQ ID NO 136 (peptide)
peptide: IKYKVM
HELM: PEPTIDE1{[CCCC(=O)[*:2]].I.K.Y.K.V.[dM].[am]}$$$$V2.0
SMILES: CCCC(=O)N[C@H](C(=O)N[C@@H](CCCCN)C(=O)N[C@@H](Cc1ccc(O)cc1)C(=O)N[C@@H](CCCCN)C(=O)N[C@H](C(=O)N[C@H](CCSC)C(N)=O)C(C)C)[C@@H](C)CC
B8: peptide of SEQ ID NO 83 (peptide)
peptide: RMRYWYM
HELM: PEPTIDE1{[CCCC(=O)[*:2]].R.M.R.Y.W.Y.[dM].[am]}$$$$V2.0
SMILES: CCCC(=O)N[C@@H](CCCNC(=N)N)C(=O)N[C@@H](CCSC)C(=O)N[C@@H](CCCNC(=N)N)C(=O)N[C@@H](Cc1ccc(O)cc1)C(=O)N[C@@H](Cc1c[nH]c2ccccc12)C(=O)N[C@@H](Cc1ccc(O)cc1)C(=O)N[C@H](CCSC)C(N)=O
B9: peptide of SEQ ID NO 89 (peptide)
peptide: MKYWYM
HELM: PEPTIDE1{M.K.Y.W.Y.[dM].[am]}$$$$V2.0; N-terminus assumed
SMILES: CSCC[C@H](N)C(=O)N[C@@H](CCCCN)C(=O)N[C@@H](Cc1ccc(O)cc1)C(=O)N[C@@H](Cc1c[nH]c2ccccc12)C(=O)N[C@@H](Cc1ccc(O)cc1)C(=O)N[C@H](CCSC)C(N)=O
B10: peptide of SEQ ID NO 141 (peptide)
peptide: PKYKVM
HELM: PEPTIDE1{[CCCCCCCC(=O)[*:2]].P.K.Y.K.V.[dM].[am]}$$$$V2.0
SMILES: CCCCCCCC(=O)N1CCC[C@H]1C(=O)N[C@@H](CCCCN)C(=O)N[C@@H](Cc1ccc(O)cc1)C(=O)N[C@@H](CCCCN)C(=O)N[C@H](C(=O)N[C@H](CCSC)C(N)=O)C(C)C
B11: peptide of SEQ ID NO 85 (peptide)
peptide: MRYWYM
HELM: PEPTIDE1{M.R.Y.W.Y.[dM].[am]}$$$$V2.0; N-terminus assumed
SMILES: CSCC[C@H](N)C(=O)N[C@@H](CCCNC(=N)N)C(=O)N[C@@H](Cc1ccc(O)cc1)C(=O)N[C@@H](Cc1c[nH]c2ccccc12)C(=O)N[C@@H](Cc1ccc(O)cc1)C(=O)N[C@H](CCSC)C(N)=O
B12: peptide of SEQ ID NO 135 (peptide)
peptide: IKYKVM
HELM: PEPTIDE1{[ac].I.K.Y.K.V.[dM].[am]}$$$$V2.0
SMILES: CC[C@H](C)[C@H](NC(C)=O)C(=O)N[C@@H](CCCCN)C(=O)N[C@@H](Cc1ccc(O)cc1)C(=O)N[C@@H](CCCCN)C(=O)N[C@H](C(=O)N[C@H](CCSC)C(N)=O)C(C)C
B13: peptide of SEQ ID NO 86 (peptide)
peptide: MRYWYM
HELM: PEPTIDE1{[ac].M.R.Y.W.Y.[dM].[am]}$$$$V2.0
SMILES: CSCC[C@H](NC(C)=O)C(=O)N[C@@H](CCCNC(=N)N)C(=O)N[C@@H](Cc1ccc(O)cc1)C(=O)N[C@@H](Cc1c[nH]c2ccccc12)C(=O)N[C@@H](Cc1ccc(O)cc1)C(=O)N[C@H](CCSC)C(N)=O
B14: peptide of SEQ ID NO 125 (peptide)
peptide: RMRYYYM
HELM: PEPTIDE1{[ac].R.M.R.Y.Y.Y.[dM].[am]}$$$$V2.0
SMILES: CSCC[C@H](NC(=O)[C@H](CCCNC(=N)N)NC(C)=O)C(=O)N[C@@H](CCCNC(=N)N)C(=O)N[C@@H](Cc1ccc(O)cc1)C(=O)N[C@@H](Cc1ccc(O)cc1)C(=O)N[C@@H](Cc1ccc(O)cc1)C(=O)N[C@H](CCSC)C(N)=O
B15: peptide of SEQ ID NO 92 (peptide)
peptide: HMRYWYM
HELM: PEPTIDE1{[ac].H.M.R.Y.W.Y.[dM].[am]}$$$$V2.0
SMILES: CSCC[C@H](NC(=O)[C@H](Cc1c[nH]cn1)NC(C)=O)C(=O)N[C@@H](CCCNC(=N)N)C(=O)N[C@@H](Cc1ccc(O)cc1)C(=O)N[C@@H](Cc1c[nH]c2ccccc12)C(=O)N[C@@H](Cc1ccc(O)cc1)C(=O)N[C@H](CCSC)C(N)=O
B16: peptide of SEQ ID NO 87 (peptide)
peptide: MRYWYM
HELM: PEPTIDE1{[CCCC(=O)[*:2]].M.R.Y.W.Y.[dM].[am]}$$$$V2.0
SMILES: CCCC(=O)N[C@@H](CCSC)C(=O)N[C@@H](CCCNC(=N)N)C(=O)N[C@@H](Cc1ccc(O)cc1)C(=O)N[C@@H](Cc1c[nH]c2ccccc12)C(=O)N[C@@H](Cc1ccc(O)cc1)C(=O)N[C@H](CCSC)C(N)=O
B17: peptide of SEQ ID NO 134 (peptide)
peptide: IKYKVM
HELM: PEPTIDE1{I.K.Y.K.V.[dM].[am]}$$$$V2.0; N-terminus assumed
SMILES: CC[C@H](C)[C@H](N)C(=O)N[C@@H](CCCCN)C(=O)N[C@@H](Cc1ccc(O)cc1)C(=O)N[C@@H](CCCCN)C(=O)N[C@H](C(=O)N[C@H](CCSC)C(N)=O)C(C)C
B18: peptide of SEQ ID NO 11 (peptide)
peptide: KMKYKVM
HELM: PEPTIDE1{[CCCC(=O)[*:2]].K.M.K.Y.K.V.[dM].[am]}$$$$V2.0
SMILES: CCCC(=O)N[C@@H](CCCCN)C(=O)N[C@@H](CCSC)C(=O)N[C@@H](CCCCN)C(=O)N[C@@H](Cc1ccc(O)cc1)C(=O)N[C@@H](CCCCN)C(=O)N[C@H](C(=O)N[C@H](CCSC)C(N)=O)C(C)C
B19: peptide of SEQ ID NO 140 (peptide)
peptide: PKYKVM
HELM: PEPTIDE1{[CCCC(=O)[*:2]].P.K.Y.K.V.[dM].[am]}$$$$V2.0
SMILES: CCCC(=O)N1CCC[C@H]1C(=O)N[C@@H](CCCCN)C(=O)N[C@@H](Cc1ccc(O)cc1)C(=O)N[C@@H](CCCCN)C(=O)N[C@H](C(=O)N[C@H](CCSC)C(N)=O)C(C)C

target: T1, formyl peptide receptor 2 (FPR2); assay: cell-based or functional assay

EC50 for [Ca2+] | Binder
< 0.01 µM | B1
< 0.01 µM | B2
< 0.01 µM | B3
< 0.01 µM | B4
< 0.01 µM | B5
< 0.01 µM | B6
< 0.01 µM | B7
< 0.01 µM | B8
< 0.01 µM | B9
< 0.01 µM | B10
< 0.01 µM | B11
< 0.01 µM | B12
< 0.01 µM | B13
< 0.01 µM | B14
< 0.01 µM | B15
< 0.01 µM | B16
< 0.01 µM | B17
< 0.01 µM | B18
< 0.01 µM | B19

target: T2, FPR1; assay: cell-based or functional assay

EC50 for [Ca2+] | Binder
> 10 µM | B1
> 10 µM | B2
> 10 µM | B3
> 10 µM | B4
> 10 µM | B5
> 10 µM | B6
> 10 µM | B7
> 10 µM | B8
> 10 µM | B9
> 10 µM | B10
> 10 µM | B11
> 10 µM | B12
> 10 µM | B13
> 10 µM | B14
> 10 µM | B15
> 10 µM | B16
> 10 µM | B17
> 10 µM | B18
> 10 µM | B19
